B1: Azoarcus group I ribozyme (parent)
chain: GUGCCUUGCGCCGGGAAACCACGCAAGGGAUGGUGUCAAAUUCGGCGAAACCUAAGCGCCCGCCCGGGCGUAUGGCAACGCCGAGCCAAGCUUCGGCGCCUGCGCCGAUGAAGGUGUAGAGACUAGACGGCACCCACCUAAGGCAAACGCUAUGGUGAAGGCAUAGUCCAGGGAGUGGCGAAAGUCACACAAACCGG

The variants in the series derive from B1. The series is described as follows: reverse-splicing fitness (ratio to wild type); higher = more active; in vitro selection; Mg2+ level not given. Summed up: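 An in vitro group I ribozyme library with randomized positions was T7-transcribed and gel-purified. In triplicate, 10 pmol RNA in EPPS pH 7.5 was reacted with 50 pmoles of a 30-nt RNA substrate for 1 h at 37 °C across several added MgCl2 levels (1–48 mM), then stopped with EDTA. Products were reverse transcribed from a substrate-complementary primer, PCR-amplified and sequenced (HiSeq 4000). Fitness is a variant's read proportion after selection over that before, normalised to wild type.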
For GUGCCUUGCGCCGGGAAACCACGCAAGGGAUGGUGUCAAAUUCGGCGAAACCUAAGCGCCCGCCCGGGCGUAUGGCAACGCGGAGCCAAGCUUCGGCGCCUGCGCCGAUGCAGGUGUAGUGACUAGACGGCACCCACCUAAGGCGAACGGUAUGGUGAAGGCAUAGUCGAGGGAGUGGCGAAAGUCACACAAACCGG [C82G A111C A120U A145G C150G C169G], the reverse-splicing fitness came out at 0.00703.
Turning to GUGCCUUGCGCCGGGAAACCACGCAAGGGAUGGUGUCAAAUUCGGCGAAACCUAAGCGCCCGCCCGGGCGUAUGGCAACGCUGAGCCAAGCUUCGGCGCCUGCGCCGAUGAAGGUGUAGAGACUAGACGGCACCCACCUAAGGCAAACGGUAUGGUGAAGGCAUAGUCAAGGGAGUGGCGAAAGUCACACAAACCGG [C82U C150G C169A], the reverse-splicing fitness came to 0.00916.
For GUGCCUUGCGCCGGGAAACCACGCAAGGGAUGGUGUCAAAUUCGGCGAAACCUAAGCGCCCGCCCGGGCGUAUGGCAACGCAGAGCCAAGCUUCGGCGCCUGCGCCGAUGUAGGUGUAGCGACUAGACGGCACCCACCUAAGGCGAACGGUAUGGUGAAGGCAUAGUCAAGGGAGGGGCGAAAGUCACACAAACCGG [C82A A111U A120C A145G C150G C169A U176G], the reverse-splicing fitness was determined as 0.00887.
As for GUGCCUUGCGCCGGGAAACCACGCAAGGGAUGGUGUCAAAUUCGGCGAAACCUAAGCGCCCGCCCGGGCGUAUGGCAACGCAGAGCCAAGCUUCGGCGCCUGCGCCGAUGUAGGUGUAGUGACUAGACGGCACCCACCUAAGGCGAACGUUAUGGUGAAGGCAUAGUCCAGGGAGCGGCGAAAGUCACACAAACCGG [C82A A111U A120U A145G C150U U176C], the figure is 0.0125.
As for GUGCCUUGCGCCGGGAAACCACGCAAGGGAUGGUGUCAAAUUCGGCGAAACCUAAGCGCCCGCCCGGGCGUAUGGCAACGCAGAGCCAAGCUUCGGCGCCUGCGCCGAUGGAGGUGUAGGGACUAGACGGCACCCACCUAAGGCUAACGAUAUGGUGAAGGCAUAGUCUAGGGAGGGGCGAAAGUCACACAAACCGG [C82A A111G A120G A145U C150A C169U U176G], the figure is 0.00457; as for GUGCCUUGCGCCGGGAAACCACGCAAGGGAUGGUGUCAAAUUCGGCGAAACCUAAGCGCCCGCCCGGGCGUAUGGCAACGCCGAGCCAAGCUUCGGCGCCUGCGCCGAUGAAGGUGUAGCGACUAGACGGCACCCACCUAAGGCAAACGCUAUGGUGAAGGCAUAGUCGAGGGAGGGGCGAAAGUCACACAAACCGG [A120C C169G U176G], 0.0039.
As for GUGCCUUGCGCCGGGAAACCACGCAAGGGAUGGUGUCAAAUUCGGCGAAACCUAAGCGCCCGCCCGGGCGUAUGGCAACGCAGAGCCAAGCUUCGGCGCCUGCGCCGAUGCAGGUGUAGUGACUAGACGGCACCCACCUAAGGCGAACGAUAUGGUGAAGGCAUAGUCUAGGGAGCGGCGAAAGUCACACAAACCGG [C82A A111C A120U A145G C150A C169U U176C], the reverse-splicing fitness is 0.00488.
As for GUGCCUUGCGCCGGGAAACCACGCAAGGGAUGGUGUCAAAUUCGGCGAAACCUAAGCGCCCGCCCGGGCGUAUGGCAACGCCGAGCCAAGCUUCGGCGCCUGCGCCGAUGUAGGUGUAGUGACUAGACGGCACCCACCUAAGGCGAACGUUAUGGUGAAGGCAUAGUCAAGGGAGCGGCGAAAGUCACACAAACCGG [A111U A120U A145G C150U C169A U176C], the reverse-splicing fitness amounted to 0.00389.
As for GUGCCUUGCGCCGGGAAACCACGCAAGGGAUGGUGUCAAAUUCGGCGAAACCUAAGCGCCCGCCCGGGCGUAUGGCAACGCGGAGCCAAGCUUCGGCGCCUGCGCCGAUGCAGGUGUAGAGACUAGACGGCACCCACCUAAGGCCAACGGUAUGGUGAAGGCAUAGUCCAGGGAGGGGCGAAAGUCACACAAACCGG [C82G A111C A145C C150G U176G], the reverse-splicing fitness is 0.00447.
Consider GUGCCUUGCGCCGGGAAACCACGCAAGGGAUGGUGUCAAAUUCGGCGAAACCUAAGCGCCCGCCCGGGCGUAUGGCAACGCUGAGCCAAGCUUCGGCGCCUGCGCCGAUGGAGGUGUAGGGACUAGACGGCACCCACCUAAGGCGAACGAUAUGGUGAAGGCAUAGUCGAGGGAGCGGCGAAAGUCACACAAACCGG [C82U A111G A120G A145G C150A C169G U176C], for which the reverse-splicing fitness worked out at 0.0228.
Turning to GUGCCUUGCGCCGGGAAACCACGCAAGGGAUGGUGUCAAAUUCGGCGAAACCUAAGCGCCCGCCCGGGCGUAUGGCAACGCAGAGCCAAGCUUCGGCGCCUGCGCCGAUGGAGGUGUAGGGACUAGACGGCACCCACCUAAGGCCAACGAUAUGGUGAAGGCAUAGUCGAGGGAGCGGCGAAAGUCACACAAACCGG [C82A A111G A120G A145C C150A C169G U176C], the reverse-splicing fitness is 0.0158.
To GUGCCUUGCGCCGGGAAACCACGCAAGGGAUGGUGUCAAAUUCGGCGAAACCUAAGCGCCCGCCCGGGCGUAUGGCAACGCCGAGCCAAGCUUCGGCGCCUGCGCCGAUGUAGGUGUAGGGACUAGACGGCACCCACCUAAGGCUAACGCUAUGGUGAAGGCAUAGUCAAGGGAGCGGCGAAAGUCACACAAACCGG [A111U A120G A145U C169A U176C] belongs 0.0247; to GUGCCUUGCGCCGGGAAACCACGCAAGGGAUGGUGUCAAAUUCGGCGAAACCUAAGCGCCCGCCCGGGCGUAUGGCAACGCUGAGCCAAGCUUCGGCGCCUGCGCCGAUGCAGGUGUAGCGACUAGACGGCACCCACCUAAGGCGAACGUUAUGGUGAAGGCAUAGUCAAGGGAGGGGCGAAAGUCACACAAACCGG [C82U A111C A120C A145G C150U C169A U176G], 0.00622; to GUGCCUUGCGCCGGGAAACCACGCAAGGGAUGGUGUCAAAUUCGGCGAAACCUAAGCGCCCGCCCGGGCGUAUGGCAACGCCGAGCCAAGCUUCGGCGCCUGCGCCGAUGAAGGUGUAGGGACUAGACGGCACCCACCUAAGGCAAACGGUAUGGUGAAGGCAUAGUCUAGGGAGCGGCGAAAGUCACACAAACCGG [A120G C150G C169U U176C], 0.0422.
Take GUGCCUUGCGCCGGGAAACCACGCAAGGGAUGGUGUCAAAUUCGGCGAAACCUAAGCGCCCGCCCGGGCGUAUGGCAACGCCGAGCCAAGCUUCGGCGCCUGCGCCGAUGUAGGUGUAGUGACUAGACGGCACCCACCUAAGGCCAACGUUAUGGUGAAGGCAUAGUCAAGGGAGCGGCGAAAGUCACACAAACCGG [A111U A120U A145C C150U C169A U176C]: the reverse-splicing fitness came out at 0.00198.

These data come from the RNAGym collection of RNA variant scans (doi:10.1093/molbev/msab373).
